Key:
[1] = target: T1, ETV2 (UniProt O00321 1-342); assay: competition; 50-fold excess vs ETS(1) probe, EMSA; EMSA: 3 µl TNT ETV2, 30 min at 4 °C; 4% native polyacrylamide gel, 0.5x TBE, 120 V 2 h; binding buffer, salt and pH not stated; conditions: protein: ivt; blunt
T1 sequence: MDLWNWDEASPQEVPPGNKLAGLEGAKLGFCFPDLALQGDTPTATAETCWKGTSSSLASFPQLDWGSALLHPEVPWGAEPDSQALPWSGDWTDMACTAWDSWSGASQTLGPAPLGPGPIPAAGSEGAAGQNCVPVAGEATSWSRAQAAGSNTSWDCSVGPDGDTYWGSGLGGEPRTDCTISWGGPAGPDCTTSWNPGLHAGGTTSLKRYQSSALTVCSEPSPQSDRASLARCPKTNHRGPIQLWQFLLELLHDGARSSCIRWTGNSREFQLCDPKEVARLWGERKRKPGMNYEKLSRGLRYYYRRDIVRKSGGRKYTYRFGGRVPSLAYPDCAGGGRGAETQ

[2] = target: T1, ETV2; assay: EMSA; strongest shift of the four; abolished by 50-fold WT competitor; EMSA: 3 µl TNT ETV2, 30 min at 4 °C; 4% native polyacrylamide gel, 0.5x TBE, 120 V 2 h; binding buffer, salt and pH not stated; conditions: protein: ivt; label: 32P (probe); blunt
[3] = target: T1, ETV2; assay: EMSA; third strongest shift; abolished by 50-fold WT competitor; EMSA: 3 µl TNT ETV2, 30 min at 4 °C; 4% native polyacrylamide gel, 0.5x TBE, 120 V 2 h; binding buffer, salt and pH not stated; conditions: protein: ivt; label: 32P (probe); blunt
[4] = target: T1, ETV2; assay: EMSA; second strongest shift; abolished by 50-fold WT competitor; EMSA: 3 µl TNT ETV2, 30 min at 4 °C; 4% native polyacrylamide gel, 0.5x TBE, 120 V 2 h; binding buffer, salt and pH not stated; conditions: protein: ivt; label: 32P (probe); blunt
[5] = target: T1, ETV2; assay: EMSA; least pronounced shift of the four; abolished by 50-fold WT competitor; EMSA: 3 µl TNT ETV2, 30 min at 4 °C; 4% native polyacrylamide gel, 0.5x TBE, 120 V 2 h; binding buffer, salt and pH not stated; conditions: protein: ivt; label: 32P (probe); blunt
[6] = target: T1, ETV2; assay: competition; 50-fold excess vs ETS(2) probe, EMSA; EMSA: 3 µl TNT ETV2, 30 min at 4 °C; 4% native polyacrylamide gel, 0.5x TBE, 120 V 2 h; binding buffer, salt and pH not stated; conditions: protein: ivt; blunt ends, 2 internal mismatches as printed
[7] = target: T1, ETV2; assay: competition; 50-fold excess vs ETS(4) probe, EMSA; EMSA: 3 µl TNT ETV2, 30 min at 4 °C; 4% native polyacrylamide gel, 0.5x TBE, 120 V 2 h; binding buffer, salt and pH not stated; conditions: protein: ivt; blunt
[8] = target: T1, ETV2; assay: competition; 50-fold excess vs ETS(3) probe, EMSA; EMSA: 3 µl TNT ETV2, 30 min at 4 °C; 4% native polyacrylamide gel, 0.5x TBE, 120 V 2 h; binding buffer, salt and pH not stated; conditions: protein: ivt; blunt

B1: ETS(1)mut (dsDNA)
DNA 1: GGGCCAGGCACCTAGCATCGG
DNA 2: CCGATGCTAGGTGCCTGGCCC
Q: Does B1 bind [1]?
A: no binding

B2: ETS(1) (dsDNA)
DNA 1: GGGCCAGGCAGGAAGCATCGG
DNA 2: CCGATGCTTCCTGCCTGGCCC
Q: Does B2 bind [2]?
A: binds

B3: ETS(3) (dsDNA)
DNA 1: CAAAGCCGCTTCCCTCCTGGG
DNA 2: CCCAGGAGGGAAGCGGCTTTG
Q: Does B3 bind [3]?
A: binds

B4: ETS(2) (dsDNA)
DNA 1: CATCGGTTTCCTCAAAGCCGC
DNA 2: GCGGCTTTGAGGAAACCGATG
Q: Does B4 bind [4]?
A: binds

B5: ETS(4) (dsDNA)
DNA 1: CCCCTCCTTCCCTCTTCACTG
DNA 2: CAGTGAAGAGGGAAGGAGGGG
Q: Does B5 bind [5]?
A: binds

B6: ETS(2)mut (dsDNA)
DNA 1: CATCGGTTAGGTTCAAGCCGC
DNA 2: GCGGCTTTGACCTAACCGATG
Q: Does B6 bind [6]?
A: no binding

B7: ETS(4)mut (dsDNA)
DNA 1: CCCCTCCTAGGCTCTTCACTG
DNA 2: CAGTGAAGAGCCTAGGAGGGG
Q: Does B7 bind [7]?
A: no binding

B8: ETS(3)mut (dsDNA)
DNA 1: CAAAGCCGCTAGGCTCCTGGG
DNA 2: CCCAGGAGCCTAGCGGCTTTG
Q: Does B8 bind [8]?
A: no binding

Source: publication PMC5884809, “ETV2-TET1/TET2 Complexes Induce Endothelial Cell-Specific Robo4 Expression via Promoter Demethylation”
